Experimental data published in paper PMC7041945, “Misfolded proteins bind and activate death receptor 5 to trigger apoptosis during unresolved endoplasmic reticulum stress” (eLife, 2020).

System: CHOP, BiP, and DR5 mRNA in HCT116 cells
Experiment: qPCR of UPR target transcripts (CHOP, BiP, DR5)
Assay type: cell-based, Homo sapiens
Conditions: for avg. fold induction relative to empty traffo, BiP / avg. fold induction relative to empty traffo, CHOP / avg. fold induction relative to empty traffo, DR5 total: norm to GAPDH; for 2^-(deltaCq) BiP / 2^-(deltaCq) CHOP / 2^-(deltaCq) DR5 total: vs GAPDH
Description: Cells were grown in 6-well plates and harvested with 0.5 ml of TRIzol reagent (Life Technologies) per manufacturer’s protocol to extract RNA. For cDNA synthesis, 500 ng of total RNA was reverse transcribed with 2 μl of the SuperScript VILO master mix (Life Technologies # 11755050) in a total reaction volume of 10 μl following the manufacturer’s protocol for reaction temperature and duration. The reverse transcription product was diluted to 200 μl with 10 mM Tris-HCl pH 8.2 and used at 1:100 dilution for subsequent RT-PCR reactions.
PCR samples were prepared as described by manufacturer’s protocols from iQ SYBR Green Supermix (BioRad #17088800).
For each experiment, qRT-PCR reactions were set up in triplicate and run using a CFX96 Real Time System (Bio-Rad). Quantitation cycles were determined with CFX Manager 3.0 software (Bio-Rad) and then normalized to GAPDH as an internal control.

[1] = HCT116, pRK CHOP 31 ng, Sheet1, replicate 1

B1: pRK CHOP (protein, UniProt P35638 1-169, looked up)
DNA damage-inducible …: MAAESLPFSFGTLSSWELEAWYEDLQEVLSSDENGGTYVSPPGNEEEESKIFTTLDPASLAWLTEEEPEPAEVTSTSQSPHSPDSSQSSLAQEEEEEDQGRTRKRKQSGHSPARAGKQRMKEKEQENERKVAQLAEENERLKQEIERLTREVEATRRALIDRMVNLHQA
modifications: expression plasmid
avg. fold induction relative to empty traffo, BiP (HCT116, 31 ng): 0.2997 fold
avg. fold induction relative to empty traffo, CHOP (HCT116, 31 ng): 18.7911 fold
fold induction relative to empty traffo, BiP (HCT116, 31 ng, replicate 1): 0.28 fold
fold induction relative to empty traffo, CHOP (HCT116, 31 ng, replicate 1): 16.3851 fold
fold induction relative to empty traffo, DR5 total (HCT116, 31 ng, replicate 1): 0.9029 fold
fold induction relative to empty traffo, BiP (HCT116, 31 ng, replicate 2): 0.3243 fold
fold induction relative to empty traffo, CHOP (HCT116, 31 ng, replicate 2): 19.1521 fold
fold induction relative to empty traffo, DR5 total (HCT116, 31 ng, replicate 2): 0.9212 fold
fold induction relative to empty traffo, BiP (HCT116, 31 ng, replicate 3): 0.2949 fold
fold induction relative to empty traffo, CHOP (HCT116, 31 ng, replicate 3): 20.8362 fold
fold induction relative to empty traffo, DR5 total (HCT116, 31 ng, replicate 3): 2.023 fold
2^-(deltaCq) BiP (HCT116, 31 ng, replicate 1): 0.02437
2^-(deltaCq) CHOP (HCT116, 31 ng, replicate 1): 0.1729
2^-(deltaCq) DR5 total (HCT116, 31 ng, replicate 1): 0.01464
2^-(deltaCq) BiP (HCT116, 31 ng, replicate 2): 0.02822
2^-(deltaCq) CHOP (HCT116, 31 ng, replicate 2): 0.2021
2^-(deltaCq) DR5 total (HCT116, 31 ng, replicate 2): 0.01494
2^-(deltaCq) BiP (HCT116, 31 ng, replicate 3): 0.02567
2^-(deltaCq) CHOP (HCT116, 31 ng, replicate 3): 0.2199
2^-(deltaCq) DR5 total (HCT116, 31 ng, replicate 3): 0.0328
avg. fold induction relative to empty traffo, BiP (HCT116, 62 ng): 0.334 fold
avg. fold induction relative to empty traffo, CHOP (HCT116, 62 ng): 50.7204 fold
avg. fold induction relative to empty traffo, DR5 total (HCT116, 62 ng): 0.954 fold
fold induction relative to empty traffo, BiP (HCT116, 62 ng, replicate 1): 0.3561 fold
fold induction relative to empty traffo, CHOP (HCT116, 62 ng, replicate 1): 46.9347 fold
fold induction relative to empty traffo, DR5 total (HCT116, 62 ng, replicate 1): 0.9555 fold
fold induction relative to empty traffo, BiP (HCT116, 62 ng, replicate 2): 0.3335 fold
fold induction relative to empty traffo, CHOP (HCT116, 62 ng, replicate 2): 49.2833 fold
fold induction relative to empty traffo, DR5 total (HCT116, 62 ng, replicate 2): 1.032 fold
fold induction relative to empty traffo, BiP (HCT116, 62 ng, replicate 3): 0.3124 fold
fold induction relative to empty traffo, CHOP (HCT116, 62 ng, replicate 3): 55.9433 fold
fold induction relative to empty traffo, DR5 total (HCT116, 62 ng, replicate 3): 0.8745 fold
2^-(deltaCq) BiP (HCT116, 62 ng, replicate 1): 0.031
2^-(deltaCq) CHOP (HCT116, 62 ng, replicate 1): 0.4954
2^-(deltaCq) DR5 total (HCT116, 62 ng, replicate 1): 0.01549
2^-(deltaCq) BiP (HCT116, 62 ng, replicate 2): 0.02903
2^-(deltaCq) CHOP (HCT116, 62 ng, replicate 2): 0.5202
2^-(deltaCq) DR5 total (HCT116, 62 ng, replicate 2): 0.01673
2^-(deltaCq) BiP (HCT116, 62 ng, replicate 3): 0.02719
2^-(deltaCq) CHOP (HCT116, 62 ng, replicate 3): 0.5905
2^-(deltaCq) DR5 total (HCT116, 62 ng, replicate 3): 0.01418
avg. fold induction relative to empty traffo, BiP (HCT116, 125 ng): 0.5304 fold
avg. fold induction relative to empty traffo, CHOP (HCT116, 125 ng): 220.701 fold
avg. fold induction relative to empty traffo, DR5 total (HCT116, 125 ng): 1.17 fold
fold induction relative to empty traffo, BiP (HCT116, 125 ng, replicate 1): 0.6342 fold
fold induction relative to empty traffo, CHOP (HCT116, 125 ng, replicate 1): 230.561 fold
fold induction relative to empty traffo, DR5 total (HCT116, 125 ng, replicate 1): 1.242 fold
fold induction relative to empty traffo, BiP (HCT116, 125 ng, replicate 2): 0.5274 fold
fold induction relative to empty traffo, CHOP (HCT116, 125 ng, replicate 2): 173.762 fold
fold induction relative to empty traffo, DR5 total (HCT116, 125 ng, replicate 2): 1.206 fold
fold induction relative to empty traffo, BiP (HCT116, 125 ng, replicate 3): 0.4295 fold
fold induction relative to empty traffo, CHOP (HCT116, 125 ng, replicate 3): 257.78 fold
fold induction relative to empty traffo, DR5 total (HCT116, 125 ng, replicate 3): 1.064 fold
2^-(deltaCq) BiP (HCT116, 125 ng, replicate 1): 0.0552
2^-(deltaCq) CHOP (HCT116, 125 ng, replicate 1): 2.434
2^-(deltaCq) DR5 total (HCT116, 125 ng, replicate 1): 0.02013
2^-(deltaCq) BiP (HCT116, 125 ng, replicate 2): 0.04591
2^-(deltaCq) CHOP (HCT116, 125 ng, replicate 2): 1.834
2^-(deltaCq) DR5 total (HCT116, 125 ng, replicate 2): 0.01955
2^-(deltaCq) BiP (HCT116, 125 ng, replicate 3): 0.03739
2^-(deltaCq) CHOP (HCT116, 125 ng, replicate 3): 2.7208
2^-(deltaCq) DR5 total (HCT116, 125 ng, replicate 3): 0.01725
avg. fold induction relative to empty traffo, BiP (HCT116, 250 ng): 0.5014 fold
avg. fold induction relative to empty traffo, CHOP (HCT116, 250 ng): 408.627 fold
avg. fold induction relative to empty traffo, DR5 total (HCT116, 250 ng): 0.9069 fold
fold induction relative to empty traffo, BiP (HCT116, 250 ng, replicate 1): 0.6408 fold
fold induction relative to empty traffo, CHOP (HCT116, 250 ng, replicate 1): 391.947 fold
fold induction relative to empty traffo, DR5 total (HCT116, 250 ng, replicate 1): 0.8794 fold
fold induction relative to empty traffo, BiP (HCT116, 250 ng, replicate 2): 0.4446 fold
fold induction relative to empty traffo, CHOP (HCT116, 250 ng, replicate 2): 418.188 fold
fold induction relative to empty traffo, DR5 total (HCT116, 250 ng, replicate 2): 0.9861 fold
fold induction relative to empty traffo, BiP (HCT116, 250 ng, replicate 3): 0.4188 fold
fold induction relative to empty traffo, CHOP (HCT116, 250 ng, replicate 3): 415.746 fold
fold induction relative to empty traffo, DR5 total (HCT116, 250 ng, replicate 3): 0.8551 fold
2^-(deltaCq) BiP (HCT116, 250 ng, replicate 1): 0.05578
2^-(deltaCq) CHOP (HCT116, 250 ng, replicate 1): 4.1369
2^-(deltaCq) DR5 total (HCT116, 250 ng, replicate 1): 0.01426
2^-(deltaCq) BiP (HCT116, 250 ng, replicate 2): 0.0387
2^-(deltaCq) CHOP (HCT116, 250 ng, replicate 2): 4.414
2^-(deltaCq) DR5 total (HCT116, 250 ng, replicate 2): 0.01599
2^-(deltaCq) BiP (HCT116, 250 ng, replicate 3): 0.03645
2^-(deltaCq) CHOP (HCT116, 250 ng, replicate 3): 4.3881
2^-(deltaCq) DR5 total (HCT116, 250 ng, replicate 3): 0.01387
avg. fold induction relative to empty traffo, BiP (HCT116, 500 ng): 0.5375 fold
avg. fold induction relative to empty traffo, CHOP (HCT116, 500 ng): 1484.73 fold
avg. fold induction relative to empty traffo, DR5 total (HCT116, 500 ng): 1.792 fold
fold induction relative to empty traffo, BiP (HCT116, 500 ng, replicate 1): 0.5213 fold
fold induction relative to empty traffo, CHOP (HCT116, 500 ng, replicate 1): 1691.32 fold
fold induction relative to empty traffo, DR5 total (HCT116, 500 ng, replicate 1): 1.92 fold
fold induction relative to empty traffo, BiP (HCT116, 500 ng, replicate 2): 0.6638 fold
fold induction relative to empty traffo, CHOP (HCT116, 500 ng, replicate 2): 1384.67 fold
fold induction relative to empty traffo, DR5 total (HCT116, 500 ng, replicate 2): 1.724 fold
fold induction relative to empty traffo, BiP (HCT116, 500 ng, replicate 3): 0.4274 fold
fold induction relative to empty traffo, CHOP (HCT116, 500 ng, replicate 3): 1378.19 fold
fold induction relative to empty traffo, DR5 total (HCT116, 500 ng, replicate 3): 1.731 fold
2^-(deltaCq) BiP (HCT116, 500 ng, replicate 1): 0.04537
2^-(deltaCq) CHOP (HCT116, 500 ng, replicate 1): 17.8515
2^-(deltaCq) DR5 total (HCT116, 500 ng, replicate 1): 0.03114
2^-(deltaCq) BiP (HCT116, 500 ng, replicate 2): 0.05778
2^-(deltaCq) CHOP (HCT116, 500 ng, replicate 2): 14.6148
2^-(deltaCq) DR5 total (HCT116, 500 ng, replicate 2): 0.02796
2^-(deltaCq) BiP (HCT116, 500 ng, replicate 3): 0.0372
2^-(deltaCq) CHOP (HCT116, 500 ng, replicate 3): 14.5464
2^-(deltaCq) DR5 total (HCT116, 500 ng, replicate 3): 0.02807
CHOP (qPCR CHOP, Sheet1) [1]: 16.3851
DR5 (qPCR CHOP, Sheet1) [1]: 0.9029
GADD34 (qPCR CHOP, Sheet1) [1]: 0.958
